The record followed here is patent publication US9994830B2, “Methods for modulating cyclic nucleotide-mediated signaling in cardiac myocytes and compositions” (The United States of America as Represented by the …, priority 2014, dated 2018).

Changes are numbered by the printed parent chain. Numbers in names are those of the source.

The target in one experiment is T1, rSERCA2 (Homo sapiens, UniProt P16615).
T1 construct: purchased Abnova
As to the kind of experiment: Co-immunoprecipitation of Flag-tagged rhPDE3A variants and rSERCA2 after incubation with or without rPKAc. Type of experiment: binding. The note with it: for PKA-stimulated (phosphorylation-dependent) interaction with SERCA2: serine-to-alanine mutants of rhPDE3A1, 50 units rPKAc, co-IP. The source says:
FIG. 11 a-d. rPKAc phosphorylates rhPDE3A and increases its interactions rSERCA2. A. Schemes representing PDE3A1 [NHR1: trans-membrane domain (obligatory membrane insertion domain); NHR2: membrane association domain; CCR: conserved C-terminal catalytic region; P1-4: predicted PKA phosphorylation sites; rhPDE3A and truncated mutants (PDE3A2, PDE3A-A510, PDE3A-RD), and rSERCA2 (1042 amino acids, 3-77 cation transporter N-terminal; 93-341, E1-E2 ATPase; 345-724, haloacid dehydrogenase like hydrolase; 819-991, cation transporter ATPase C-terminus). B. Putative PKA phosphorylation sites of PDE3A designated with asterisks. C-D. Purified rSERCA2 (150 ng) (Abnova) and 50 units of Flag-tagged rhPDE3A1 truncated mutants [rhPDE3A2, rhPDE3A-A510, and similarly expressed rhPDE3A-RD (aa 146-484)](FIG. 11D) or mutants lacking the PKA putative phosphorylation site mutants of rhPDE3A1 [Ser292/293A (M1), S312A (M2), S428A (M3), S438A (M4), S292A/293A/312A/438A (M5)](FIG. 11C) were incubated with or without 50 units of rPKAc at 30° C. for 30 min and 5 mM MgCl2 in phosphorylation buffer. Proteins were immunoprecipitated with anti-Flag antibodies and immunoblotted with anti-SERCA2 (upper panel), or anti-Flag (middle panel). Lower panel: input control (SERCA2). Shown are representative blots from three independent experiments. (RD: regulatory domain; AA: amino acid).
Flag-tagged rhPDE3A1 and its phosphorylation site mutants [rhPDE3A1-S292A/293A (M1), rhPDE3A1-S312A (M2), rhPDE3A1-S428A (M3), rhPDE3A1-S438A (M4), rhPDE3A1-S292A/293A/312A/438A (M5) open reading frame [accession #NP_000912] was synthesized by Genscript, Inc (Piscataway, N.J.), subcloned into pAcSG2 baculoviral expression vector. Flag-tagged rhPDE3A variants and phosphorylation site mutants were expressed in SF21 cells [(10-20)×106 SF21 cells/75-cm2 flask] as described (19,20). SF21 cells were harvested, sedimented (10 min, 1000×g, 4° C.), washed twice with ice-cold PBS, resuspended, homogenized (in a Dounce homogenizer) in buffer B and sonicated […]. A comparison of the translated sequences of human AKAP18γ (AC NP_057461 and AK300587; 348 aa residues) and rat AKAP18δ (3) (AC QJP77; 352 aa residues) indicate that eight of the first twelve aa residues of human AKAP18γ and rat AKAP18δ are identical, and that the proteins are homologous (˜74% aa identity). SF21 cell extracts, which contained his-tagged-rAKAP18δ, were prepared as described above. Flag-tagged rhPDE3A1 (usually 50 arbitrary (u) units) was incubated (30 min, 30° C.) with rAKAP18δ (200 μl, containing 50 ng of recombinant protein), with or without different concentrations of rPKAc (final volume, 300 μl) in buffer B containing 2 mM DTT and 200 μM ATP. Reactions were stopped by dilution of reaction mixtures to 1.0 ml with buffer B containing 1 mg/ml SF21 cell lysates, and cleared as described above (cf ‘Immunoprecipitation and immunoblotting’ subsection). His-tagged rAKAP18δ was immunoprecipitated with anti-his Mab Mag-beads (Genscript). Anti-his Mab Mag beads-bound immunoprecipitates were washed, collected, and anti-his Mab Mag-beads-bound proteins were eluted by boiling in Laemmli's SDS buffer (100 μl) and samples (15 μl) of immunoprecipitated proteins as well as of reaction mixtures (‘input proteins’) were immunoblotted with indicated antibodies as described above.

For experiment [1], the system named is neonatal rat ventricular myocytes. As to the kind of experiment: Hypertrophy of neonatal rat ventricular myocytes (PDE3 inhibitor treatment or transfection with dominant-negative constructs, with or without norepinephrine). Type of experiment: cell-based. An excerpt: FIG. 5. Anti-hypertrophic actions of PDE3A1-selective targeting in neonatal rat ventricular myocytes.
In contrast, expression of the PDE3A1 dominant negative has no pro-hypertrophic effect, and actually blocks the hypertrophic responses to norepinephrine.
In neonatal rat ventricular myocytes, conventional PDE3 inhibition promotes cellular hypertrophy, which may be associated with adverse consequences in heart failure. We questioned what effect PDE3A1-selective inhibition would have. […] The F1004A substitution is a change in the amino acid sequence of PDE3A1 at amino acid position 1004 from a phenylalanine to an alanine. We transfected neonatal rat ventricular myocytes with this dominant-negative construct to competitively block the protein-protein interactions that localize PDE3A1 to specific intracellular microdomains. […] To our knowledge, this is the first direct evidence that conventional PDE3 inhibition and isoform-selective targeting have different effects in cardiac myocytes, and that some of the adverse consequences of nonselective PDE3 inhibition may be averted by isoform-selective targeting involving protein-protein interactions.

T1 sequence (P16615 whole entry): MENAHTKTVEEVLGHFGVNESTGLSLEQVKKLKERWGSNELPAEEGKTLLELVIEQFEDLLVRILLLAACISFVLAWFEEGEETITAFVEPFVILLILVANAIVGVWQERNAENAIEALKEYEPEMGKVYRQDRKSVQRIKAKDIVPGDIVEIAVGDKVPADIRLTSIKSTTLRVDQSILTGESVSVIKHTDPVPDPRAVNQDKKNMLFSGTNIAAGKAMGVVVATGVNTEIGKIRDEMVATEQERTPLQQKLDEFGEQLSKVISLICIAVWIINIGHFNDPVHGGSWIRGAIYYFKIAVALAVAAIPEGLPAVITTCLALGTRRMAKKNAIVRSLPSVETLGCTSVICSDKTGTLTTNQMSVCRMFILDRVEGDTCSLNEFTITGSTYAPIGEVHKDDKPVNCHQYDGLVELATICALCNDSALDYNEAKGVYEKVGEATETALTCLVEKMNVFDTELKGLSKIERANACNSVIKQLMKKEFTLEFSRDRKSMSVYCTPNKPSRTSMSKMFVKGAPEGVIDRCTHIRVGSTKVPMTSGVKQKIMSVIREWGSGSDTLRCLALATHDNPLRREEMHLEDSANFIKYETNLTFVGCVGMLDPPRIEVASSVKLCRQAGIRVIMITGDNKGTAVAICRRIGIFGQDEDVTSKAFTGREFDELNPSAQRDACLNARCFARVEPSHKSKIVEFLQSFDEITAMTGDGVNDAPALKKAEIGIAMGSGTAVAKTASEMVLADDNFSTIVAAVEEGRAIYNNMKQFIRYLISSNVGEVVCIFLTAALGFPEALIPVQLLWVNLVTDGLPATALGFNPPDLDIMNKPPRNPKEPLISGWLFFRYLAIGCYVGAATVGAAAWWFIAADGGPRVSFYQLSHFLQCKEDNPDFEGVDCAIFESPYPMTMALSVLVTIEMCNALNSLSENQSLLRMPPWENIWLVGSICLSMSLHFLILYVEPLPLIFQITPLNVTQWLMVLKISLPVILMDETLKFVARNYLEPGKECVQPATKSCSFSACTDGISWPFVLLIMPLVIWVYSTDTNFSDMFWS

B1: rPDE3A-RD: construct containing only the N-terminal portion of PDE3A1 (aa 146-484), regulatory domain (protein)
chain: MGLYLLRAGVRLPLAVALLAACCGGEALVQIGLGVGEDHLLSLPAAGVVLSCLAAATWLVLRLRLGVLMIALTSAVRTVSLISLERFKVAWRPYLAYLAGVLGILLARYVEQILPQSAEAAPREHLGSQLIAGTKEDIPVFKRRRRSSSVVSAEMSGCSSKSHRRTSLPCIPREQLMGHSEWDHKRGPRGSQSSGTSITVDIAVMGEAHGLITDLLADPSLPPNVCTSLRAVSNLLSTQLTFQAIHKPRVNPVTSLSENYTCSDSEESSEKDKLAIPKRLRRSLPPGLLRRVSSTWTTTTSATGLPTLEPAPVRRDRSTSIKLQEAPSSSPDSWNNPVM
Regarding B1, the “co-immunoprecipitation of rSERCA2 with construct” value with rSERCA2 (truncated rhPDE3A constructs) is “co-immunoprecipitated”.

B2: PDE3A1-F1004A: RFP-tagged PDE3A1 construct with F1004A substitution in the C-terminus yielding a catalytically inactive, dominant-negative protein (SEQ ID NO:2) (protein, listed as Homo sapiens)
chain: MAVPGDAARVRDKPVHSGVSQAPTAGRDCHHRADPASPRDSGCRGCWGDLVLQPLRSSRKLSSALCAGSLSFLLALLVRLVRGEVGCDLEQCKEAAAAEEEEAAPGAEGGVFPGPRGGAPGGGARLSPWLQPSALLFSLLCAFFWMGLYLLRAGVRLPLAVALLAACCGGEALVQIGLGVGEDHLLSLPAAGVVLSCLAAATWLVLRLRLGVLMIALTSAVRTVSLISLERFKVAWRPYLAYLAGVLGILLARYVEQILPQSAEAAPREHLGSQLIAGTKEDIPVFKRRRRSSSVVSAEMSGCSSKSHRRTSLPCIPREQLMGHSEWDHKRGPRGSQSSGTSITVDIAVMGEAHGLITDLLADPSLPPNVCTSLRAVSNLLSTQLTFQAIHKPRVNPVTSLSENYTCSDSEESSEKDKLAIPKRLRRSLPPGLLRRVSSTWTTTTSATGLPTLEPAPVRRDRSTSIKLQEAPSSSPDSWNNPVMMTLTKSRSFTSSYAISAANHVKAKKQSRPGALAKISPLSSPCSSPLQGTPASSLVSKISAVQFPESADTTAKQSLGSHRALTYTQSAPDLSPQILTPPVICSSCGRPYSQGNPADEPLERSGVATRTPSRTDDTAQVTSDYETNNNSDSSDIVQNEDETECLREPLRKASACSTYAPETMMFLDKPILAPEPLVMDNLDSIMEQLNTWNFPIFDLVENIGRKCGRILSQVSYRLFEDMGLFEAFKIPIREFMNYFHALEIGYRDIPYHNRIHATDVLHAVWYLTTQPIPGLSTVINDHGSTSDSDSDSGFTHGHMGYVFSKTYNVTDDKYGCLSGNIPALELMALYVAAAMHDYDHPGRTNAFLVATSAPQAVLYNDRSVLENHHAAAAWNLFMSRPEYNFLINLDHVEFKHFRFLVIEAILATDLKKHFDFVAKFNGKVNDDVGIDWTNENDRLLVCQMCIKLADINGPAKCKELHLQWTDGIVNEFYEQGDEEASLGLPISPFMDRSAPQLANLQESAISHIVGPLCNSYDSAGLMPGKWVEDSDESGDTDDPEEEEEEAPAPNEEETCENNESPKKKTFKRRKIYCQITQHLLQNHKMWKKVIEEEQRLAGIENQSLDQTPQSHSSEQIQAIKEEEEEKGKPRGEEIPTQKPDQ
modifications: RFP tag; (1)..(1141) conceptual translation of the longest ORF of the PDE3A gene with a mutation at amino acid position 1004 in which phenylalanine is changed to alanine; presence of alanine at amino acid 1004 inactivates phosphodiesterase activity
As for B2, in experiment [1] (neonatal rat ventricular myocytes transfected with construct, norepinephrine), the “hypertrophic response to norepinephrine” value is “blocked the hypertrophic response to norepinephrine”. In addition, in experiment [1] (neonatal rat ventricular myocytes, treatment or transfection alone), the cellular hypertrophy result was “did not induce cellular hypertrophy”.

B3: M4: Flag-tagged rhPDE3A1 phosphorylation site mutant S438A (protein, UniProt Q14432 1-1141, looked up, variant S438A)
cGMP-inhibited 3',5'-cyclic …: B2 chain with S438A, A1004F
modifications: Flag tag
notes: Flag-tagged rhPDE3A1 phosphorylation site mutant S438A
Turning to B3, the “PKA-stimulated (phosphorylation-dependent) interaction with SERCA2” value (shortened to “PKA-stimulated”) with rSERCA2 is listed as “had no effect”.

B4: M3: Flag-tagged rhPDE3A1 phosphorylation site mutant S428A (protein, UniProt Q14432 1-1141, looked up, variant S428A)
cGMP-inhibited 3',5'-cyclic …: B2 chain with S428A, A1004F
modifications: Flag tag
notes: Flag-tagged rhPDE3A1 phosphorylation site mutant S428A
Take B4: in the experiment with rSERCA2, the “PKA-stimulated” value was “slightly decreased”.

B5: M5: Flag-tagged rhPDE3A1 phosphorylation site mutant S292A/293A/312A/438A (protein, UniProt Q14432 1-1141, looked up, variant S292A S293A S312A S438A)
cGMP-inhibited 3',5'-cyclic …: B2 chain with S292A, S293A, S312A, S438A, A1004F
modifications: Flag tag
notes: Flag-tagged rhPDE3A1 phosphorylation site mutant S292A/293A/312A/438A
B5: the “PKA-stimulated” value with rSERCA2 was “markedly diminished”.

B6: M1: Flag-tagged rhPDE3A1 phosphorylation site mutant S292A/293A (protein, UniProt Q14432 1-1141, looked up, variant S292A S293A)
cGMP-inhibited 3',5'-cyclic …: B2 chain with S292A, S293A, A1004F
modifications: Flag tag
notes: Flag-tagged rhPDE3A1 phosphorylation site mutant S292A/293A
Turning to B6, the “PKA-stimulated” value in the experiment with rSERCA2 was “markedly diminished”.

B7: M2: Flag-tagged rhPDE3A1 phosphorylation site mutant S312A (protein, UniProt Q14432 1-1141, looked up, variant S312A)
cGMP-inhibited 3',5'-cyclic …: B2 chain with S312A, A1004F
modifications: Flag tag
notes: Flag-tagged rhPDE3A1 phosphorylation site mutant S312A
For B7, the “PKA-stimulated” value with rSERCA2 was “slightly decreased”.
